{
  "source": "patent US20250215467A1",
  "about": "“L-THREONINE TRANSALDOLASES AND USES THEREOF” (University of Delaware, priority 2022, published 2025)",
  "key": {"[1]": {"experiment": "TTA-ADH coupled assay, substrate scope of TTAs on aromatic aldehydes", "assay_type": "biochemical", "description": "High-throughput screening of purified TTAs was performed with a TTA-ADH coupled assay using purified TTA and commercially available alcohol dehydrogenase from S. cerevisiae purchased from MilliporeSigma. Aldehyde stocks were prepared in 50-100 mM solutions in DMSO or acetonitrile. Reaction mixtures were prepared in a 96-well plate with 100 μL of 100 mM phosphate buffer pH 7.5, 0.5 mM NADH, 0.4 mM PLP, 15 mM MgCl2, and 100 mM L-Thr with the addition of 0.25 mM to 1 mM aldehyde depending on the background absorbance at 340 nm (Table 4), 10 U ScADH, and 0.25 μM purified TTA unless otherwise specified. Reactions were initiated with the addition of enzyme. […] The following controls were included for every assay: reaction mixture without aldehyde, without TTA, and without enzyme (TTA or ADH). Rates were calculated by identifying the linear region at the beginning of the kinetic run and converting the depletion in absorbance to the depletion of mM NADH using an NADH standard curve.\nWe specifically selected substrates with ring substituents with different electron withdrawing properties (1, 3, 6, 7, 8), substituent size (12), and aldehyde chain length (15) to compare the activity of the putative TTAs to ObiH. We were also encouraged by the activity of PbTTA and KaTTA on vanillin and protocatechualdehyde which are substrates that would form products like commercially available therapeutic, Droxidopa (FIG. 18).\nTo explore the possibility that DbTTA and TmTTA are TTAs active on other related aldehydes, we sought to examine their activity with L-Thr and aldehyde substrates with different ring substituent position (2), bulkier, hydrophobic chemistry (10), and aldehyde chain length (14) using the TTA-ADH coupled assay."}, "[2]": {"experiment": "In vitro assay over 20 h with HPLC analysis (amino acid substrate specificity, diastereomeric excess)", "assay_type": "biochemical", "settings": "3 as aldehyde substrate", "description": "(§1) Metabolites of interest were quantified via high-performance liquid chromatography (HPLC) using an Agilent 1260 Infinity model equipped with a Zorbax Eclipse Plus-C18 column. To quantify aldehyde and β-OH-nsAAs, an initial mobile phase of solvent A/B=95/5 was used (solvent A, water+0.1% TFA; solvent B, acetonitrile+0.1% TFA) and maintained for 5 min. A gradient elution was performed (A/B) as follows: gradient from 95/5 to 50/50 for 5-12 min, gradient from 50/50 to 0/100 for 12-13 min, and gradient from 0/100 to 95/5 for 13-14 min. A flow rate of 1 mL min-1 was maintained, and absorption was monitored at 210, 250 and 280 nm.\nWe performed an in vitro assay over 20 h using 3 as the aldehyde substrate and either L-Thr, Glycine (Gly), or L-Serine (L-Ser) as the candidate amino acid. Since the TTA-ADH coupled assay is specific to L-Thr, we analyzed TTA activity via HPLC with a chemically synthesized β-OH-nsAA standard for the assumed product from 3."}, "[3]": {"system": "E. coli RARE strain", "experiment": "CAR-TTA coupled production in aerobically growing E. coli RARE", "assay_type": "cell-based, Escherichia coli", "settings": "coupled to NiCAR, 2 mM acid, HPLC after 20 h", "description": "For the CAR-TTA coupled assay, the strains transformed with a plasmid expressing a TTA and a second plasmid expressing a CAR were grown under identical conditions with the addition of 34 μg/mL chloramphenicol (Cm) to maintain the additional plasmid. Further, 0.2 nM aTc and 1 mM IPTG were added to induce protein expression and 2 mM aldehyde, or acid was added at the time of induction. Following induction, the cultures were grown for 20 h at 30° C. while shaking at 1000 RPM with product concentrations measured via supernatant sampling and submission to HPLC.\nFinally, to partially address the toxicity of supplemented aldehydes in fermentative contexts, we investigated whether we could couple a TTA to a carboxylic acid reductase (CAR) to create a steady and low-level supply of aldehydes biosynthesized from carboxylic acid precursors. […]\nWith the promise of the CAR-TTA coupling, we wanted to investigate the generalizability of this pathway to produce a β-OH-nsAA that has a bio-orthogonal conjugation handle. […] Finally, given the potential to produce novel peptide or protein products in cells, we wanted to confirm the activity of this cascade in growing cells, which was successful for all CAR-TTA pairings with MavCAR producing the highest titer determined by product peak area after 20 h (FIG. 20d). […]"}, "[4]": {"experiment": "In vitro CAR-TTA coupled assay with HPLC analysis", "assay_type": "biochemical", "settings": "CAR plus 2 μM PbTTA, 100 mM L-Thr, 20 h", "description": "In vitro CAR activity assays were performed as previously reported (Gopal et al. biorxiv, 2022) using 2 mM NADPH and 2 mM ATP, 20 mM MgCl2, and 0.75 μM CAR and E. coli pyrophosphatase. For in vitro coupling with the CAR and TTA, the same in vitro CAR assay was performed with the addition of 2 μM TTA, 0.4 mM PLP, and 100 mM L-Thr; however, rather than monitoring the reaction with the plate reader, the plate was left shaking at 1000 RPM with an orbital radius of 1.25 mm at 30° C. overnight. The reaction was then quenched after 20 h with 100 μL of 3:1 methanol:2 M HCl. The supernatant was then separated from the protein precipitate using centrifugation and analyzed via HPLC.\nas §1, with “nm. […]” for “nm.”"}},
  "data": [
    {"molecule": "PbTTA: L-threonine transaldolase, SEQ ID NO: 16, Parachlamydiales bacterium, MBN2478762.1 (protein, listed as Parachlamydiales bacterium) METSLKDFETILHLINKEEIDSNDTIHMTANENIMSKLSKHYLKSTLSYRYHVGMFDDQKNLTVSRSCLIKNSLMLRCLSPIFLLEQQAREYVKKMFFAEYADFRPLSGMHTVFCILSTLTKPNDRVYVFTTESVGHAATVSLLKSLGRKVSFIPFCEKKLDIDLEKLSKQILIEKPNAILFDFGTPFYPLPIREIREIVGNDVKMIYDASHVLGLIAGGQFQNPLLEGCDVLIGNTHKTFPGPQKGMILYKNKSLGKEIATEIFKSAISAQHTHHAIALYVTIIEMYIHGKEYANQIIKNNHALSQALINEGFKIFKRKNQFSLSHMIAITGDFPIDHHVACADLHNSNISTNSRILYDFPAVRIGVQEVTRKGMKEKDMVQLAKFFKEIILDRKNISSKIKEFNNKFNSIEYSLDEIYEKLF", "values": [
      {"measurement": "activity on vanillin and protocatechualdehyde", "setting": "[1]; TTA-ADH coupled assay", "result": "activity"},
      {"measurement": "activity on a set of aromatic aldehyde substrates (substrate scope)", "setting": "[1]; substrates 1, 3, 6, 7, 8, 12, 15", "result": "high activity on a diverse array of substrates"},
      {"measurement": "β-OH-nsAA formation using L-Ser or Gly", "setting": "[2]", "result": "no β-OH-nsAA formation"},
      {"measurement": "β-OH-nsAA production from 4-formyl benzoic acid", "setting": "[3]", "result": "observed a peak corresponding to the β-OH-nsAA"},
      {"measurement": "β-OH-nsAA production from 4-azido-benzoic acid, in vitro CAR-TTA coupling", "setting": "[4]", "result": "successfully produced a β-OH-nsAA product"}
    ]}
  ]
}
